Assay results reported in publication PMC11145553, “SORL1 is a receptor for tau that promotes tau seeding” (The Journal of Biological Chemistry, 2024).

How the values were obtained:
Conditions in all cases: both partners purified
[1] = biological target: T1, Phosphorylated 2N4R tau produced in SF9 cells (human, UniProt P10636-8 1-441, phosphorylated (hyperphosphorylated forms; intermediate tau phosphorylation state); sites not given); assay: SPR; SORL1 VPS10 domain amine-coupled to a CM5 chip; tau in single cycle titrations (3.8-310 nM); 0.15 M NaCl, 0.05% Tween 20, 1 mM CaCl2 pH 7.4; equilibrium analysis (Req from a pseudo-first-order fit)
T1 construct: also called 2N4R SF9; SF9 tau; source: SF9 cells (baculovirus), purified (boiled lysate, HisTrap)

[2] = biological target: T2, Recombinant human 2N4R tau (full-length tau), WT (human, UniProt P10636-8 1-441); assay: SPR; SORL1 VPS10 domain amine-coupled to a CM5 chip; tau in single cycle titrations (3.8-310 nM); 0.15 M NaCl, 0.05% Tween 20, 1 mM CaCl2 pH 7.4; kinetic analysis, 1:1 fit, KD calculated from the kinetic parameters
T2 construct: the His tag applies only to the in-house protein; The uptake assays used 125I-labeled R&D SP-495; also called monomeric tau; microtubule-associated protein tau; source: His-tagged, E. coli, purified, or bought: R&D Systems (SP-495)

[3] = biological target: T1, Phosphorylated 2N4R tau produced in SF9 …; assay: as above

T2 sequence (P10636 other isoform, or with tags, fused parts or gaps): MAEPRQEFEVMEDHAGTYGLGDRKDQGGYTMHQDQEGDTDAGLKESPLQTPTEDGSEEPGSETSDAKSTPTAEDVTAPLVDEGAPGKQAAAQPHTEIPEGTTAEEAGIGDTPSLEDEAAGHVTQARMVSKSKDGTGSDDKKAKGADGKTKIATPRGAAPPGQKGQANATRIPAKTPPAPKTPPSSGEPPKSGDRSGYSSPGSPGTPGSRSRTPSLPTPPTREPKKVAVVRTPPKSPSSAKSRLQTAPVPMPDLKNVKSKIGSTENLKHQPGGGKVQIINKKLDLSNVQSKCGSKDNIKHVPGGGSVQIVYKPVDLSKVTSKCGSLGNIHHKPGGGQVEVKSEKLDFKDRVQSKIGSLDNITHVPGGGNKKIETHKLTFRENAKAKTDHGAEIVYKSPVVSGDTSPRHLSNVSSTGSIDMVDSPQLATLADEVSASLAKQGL
T1 sequence (P10636 other isoform, or with tags, fused parts or gaps): as above

B1: Recombinant human SORL1 VPS10 domain, aa 82 to 753 (domain or fragment, UniProt Q92673 82-753, looked up)
chain: SAALQPEPIKVYGQVSLNDSHNQMVVHWAGEKSNVIVALARDSLALARPKSSDVYVSYDYGKSFKKISDKLNFGLGNRSEAVIAQFYHSPADNKRYIFADAYAQYLWITFDFCNTLQGFSIPFRAADLLLHSKASNLLLGFDRSHPNKQLWKSDDFGQTWIMIQEHVKSFSWGIDPYDKPNTIYIERHEPSGYSTVFRSTDFFQSRENQEVILEEVRDFQLRDKYMFATKVVHLLGSEQQSSVQLWVSFGRKPMRAAQFVTRHPINEYYIADASEDQVFVCVSHSNNRTNLYISEAEGLKFSLSLENVLYYSPGGAGSDTLVRYFANEPFADFHRVEGLQGVYIATLINGSMNEENMRSVITFDKGGTWEFLQAPAFTGYGEKINCELSQGCSLHLAQRLSQLLNLQLRRMPILSKESAPGLIIATGSVGKNLASKTNVYISSSAGARWREALPGPHYYTWGDHGGIITAIAQGMETNELKYSTNEGETWKTFIFSEKPVFVYGLLTEPGEKSTVFTIFGSNKENVHSWLILQVNATDALGVPCTENDYKLWSPSDERGNECLLGHKTVFKRRTPHATCFNGEDFDRPVVVSNCSCTREDYECDFGFKMSEDLSLEVCVPDPEFSGKSYSPPVPCPVGSTYRRTRGYRKISGDTCSGGDVEARLEGELVPCP
notes: VPS10 domain of sortilin-related receptor 1 (SORL1), human, residues 82-753; also called vacuolar protein sorting 10 domain of SORL1; VPS10 peptide; source: bought: R&D Systems (9880-LA)
Kd [1]: 0.095 µM
Kd [2]: 0.015 µM
koff [2]: 0.41 s⁻¹
kon [2]: 5e+07 M⁻¹ s⁻¹
Kd [3]: 0.078 µM
koff [3]: 0.0061 s⁻¹
kon [3]: 85000 M⁻¹ s⁻¹
